Fold change in constitutive β-arrestin-2 recruitment (with against without cumate) data for one substance are collected here from paper PMC10322906.

This assay concerns the target CXCR4-Tango. Briefly: Tango (TEV-cleavage luciferase reporter of arrestin recruitment); Tango-Trio, basal: HTTL-B1 / HTTL-B2 cells transfected with GPCR-Tango constructs, with against without cumate (30 µg/mL) or cumate dose-response, no agonist; in Fig. 7 also with inverse agonists/antagonists at EC80. A general note: A reporter such as luciferase makes a cellular process visible.

In turn, “β-arrestin2-TEV219 (from UniProt P32121 1-409) (natural protein)” showed a fold change in constitutive β-arrestin-2 recruitment (with against without cumate) of 67 fold.
